Experimental data: the supplement of paper PMC7877785
± gives the uncertainty stated by the source.

Test: self-splicing fitness, log relative to wild type (ln ratio); higher = more splicing; Tetrahymena group I intron in knt gene, E. coli kanamycin selection, DiMSum; sequences stand for … in CUCUCU…GGAGGGAAAAGUUAUCAGGCAUGCACCUGGUAGCUAGUCUUUAAACCAAUAGAUUGCAUCGGUUUAAAAGGCAAGACCGUCAAAUUGCGGGAAAGGGGUCAACAGCCGUUCAGUACCAAGUCUCAGGGGAAACUUUGAGAUGGCCUUGCAAAGGGUAUGGUAAUAAGCUGACGGACAUGGUCCUAACCACGCAGCCAAGUCCUAAGUCAACAGAUCUUCUGUUGAUAUGGAUGCAGUUCACAGACUAAAUGUCGGUCGGGGAAGAUGUAUUCUUCUCAUAAGAUAUAGUCGGACCUCUCCUUAAUGGGAGCUAGCGGAUGAAGUGAUGCAACACUGGAGCCGCUGGGAACUAAUUUGUAUGCGAAAGUAUAUUGAUUAGUUUUGGAGUACUCGUGGUCG
Summary of the method: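 The eight P1ex-region nucleotides of an intron in the knt kanamycin-resistance gene on pET-22b(+) were all randomised and the library put into E. coli BL21(DE3). Six replicate transformations were grown overnight at 37°C or 30°C on LB agar with or without 25 μg/mL kanamycin, together with 100 μg/mL carbenicillin, 50 μM IPTG and 0.2% rhamnose. Colonies were pooled and amplicon-sequenced on an Illumina HiSeq 2500. Fitness from DiMSum is the error-weighted combination of wild-type-normalised replicate fold changes, kanamycin over none.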

Sequence	self-splicing fitness (ln) (30 °C)	self-splicing fitness (ln) (37 °C)
GGUAAGCAAUAUUACGAUUU	-0.236 ± 0.1	-0.0101 ± 0.14
GGUAAGCAAUAUUACGCACA	-0.755 ± 0.12	0.101 ± 0.15
GGUAAGCAAUAUUACGCCGA	-2.95 ± 0.43	-0.926 ± 0.25
GGUAAGCAAUAUUACGCGUA	-0.32 ± 0.21	-0.425 ± 0.15
GGUAAGCAAUAUUACGCUGU	-3.25 ± 0.29	-1.65 ± 0.23
GGUAAGCAAUAUUACGGAUA	-3.17 ± 0.25	-1.69 ± 0.13
GGUAAGCAAUAUUACGGCAU	-0.173 ± 0.078	0.827 ± 0.11
GGUAAGCAAUAUUACGGCGG	-2.55 ± 0.24	-0.84 ± 0.18
GGUAAGCAAUAUUACGGCGU	0.139 ± 0.13	-0.0376 ± 0.15
GGUAAGCAAUAUUACGGGUA	-1.98 ± 0.22	-1.71 ± 0.18
GGUAAGCAAUAUUACGUAGA	-1.56 ± 0.13	-1.54 ± 0.21
GGUAAGCAAUAUUACGUAGC	-0.417 ± 0.41	
GGUAAGCAAUAUUACGUAUC	-3.54 ± 0.23	-1.39 ± 0.45
GGUAAGCAAUAUUACGUAUG	-3.72 ± 0.29	-2.32 ± 0.18
GGUAAGCAAUAUUACGUCGU	-1 ± 0.11	-0.732 ± 0.12
GGUAAGCAAUAUUACGUGGG	-4.06 ± 0.3	-2.36 ± 0.25
GGUAAGCAAUAUUACGUGUA	-1.73 ± 0.078	-0.95 ± 0.086
GGUAAGCAAUAUUACGUUCA	-0.432 ± 0.081	0.0273 ± 0.12
GGUCAGCAAUAUUACGAAUG	-0.0371 ± 0.078	-0.989 ± 0.1
GGUCAGCAAUAUUACGAUAG	-1.37 ± 0.077	0.0315 ± 0.1
GGUCAGCAAUAUUACGCAAC	-0.639 ± 0.11	-0.859 ± 0.17
GGUCAGCAAUAUUACGCAGA		-2.72 ± 0.33
GGUCAGCAAUAUUACGCAUG	-1.15 ± 0.1	-0.079 ± 0.12
GGUCAGCAAUAUUACGCCGC	-2.96 ± 0.26	-2.62 ± 0.36
